Assay results taken from patent US20210347882A1 (Johns Hopkins, published 2021).
Positions count from the first letter of the chain named.

T1: human Resistin-Like Molecule Beta (human, UniProt Q9BQ08 24-111, limits assumed)
T1 construct: also called hRELMβ; RELMβ
T1 sequence (looked up): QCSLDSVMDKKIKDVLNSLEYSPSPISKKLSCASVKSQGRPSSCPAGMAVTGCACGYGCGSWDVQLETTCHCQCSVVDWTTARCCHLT

T2: human Resistin (human, UniProt Q9HD89 19-108)
T2 construct: The sandwich ELISA used the R&D kit standard; also called hResistin; huRes
T2 sequence (looked up): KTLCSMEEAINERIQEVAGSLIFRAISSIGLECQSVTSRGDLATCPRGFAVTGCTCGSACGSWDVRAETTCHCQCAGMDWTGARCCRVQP

B1: Clone 1 rIgG (antibody, V domains shown)
VH: EVQLLESGGGLVQPGGSLRLSCAASGFTFSSYAMSWVRQAPGKGLEWVSSISQRGRKTLYADSVKGRFTISRDNSKNTLYLQMNSLRAEDTAVYYCAKGLRRFDYWGQGTLVTVSS
VL: DIQMTQSPSSLSASVGDRVTITCRASQSISSYLNWYQQKPGKAPKLLIYMASHLQSGVPSRFSGSGSGTDFTLTISSLQPEDFATYYCQQPRSTPLTFGQGTKVEIKR
notes: Fully human IgG1 converted from scFv, tested as supernatant of expressing cells; Possibly the same clone as Ab1
B2: Clone 18 rIgG (antibody, V domains shown)
VH: B1 VH with S50T, S52H, Q53K, R54T, R56S, K57P, L59Y, G99S, R101K, R102Y
VL: B1 VL with M50R, T94L, L96A
notes: Fully human IgG1 converted from scFv, tested as supernatant of expressing cells
B3: Clone 13 rIgG (antibody, V domains shown)
VH: B1 VH with S52Y, Q53P, R54Q, R56L, K57R, L59Y, G99N, R101A, R102K
VL: B1 VL with M50R, H53T, S93A, T94L, L96G
notes: Fully human IgG1 converted from scFv, tested as supernatant of expressing cells; Possibly the same clone as Ab13
B4: Clone 2 rIgG (antibody, V domains shown)
VH: B1 VH with S50T, S52T, Q53T, R54T, R56T, K57A, L59W, G99T, R101Q
VL: B1 VL with M50E, H53V, T94L, L96M
notes: as for B2

biological target: T1, human Resistin-Like Molecule Beta; experiment: QC ELISA, hRELMβ coated 0.5 µg/well, IgG supernatant, FITC-goat anti-human IgG
Procedure: (§1) As a result, 4 IgGs (Clones 1, 2, 13 and 18) bind to two targets positively. hRELMβ: 0.5 μg/well; hResistin: 5 μg/well; secondary antibody: FITC-goat anti-human IgG pAb.

Binding result, binds:
B1
B2
B3
B4

biological target: T2, human Resistin; experiment: QC ELISA, hResistin coated 5 µg/well, IgG supernatant, FITC-goat anti-human IgG
Procedure: as §1

Binding result, binds:
B1
B2
B3
B4
